Laboratory results as given in publication PMC5749897.

What was measured:
[1] = molecular target: E1E2 S432A (H77 alanine-scanning library clone) (hepatitis C virus genotype 1a, strain H77); assay: flow cytometry on cells
[2] = molecular target: E1E2 Y443A (H77 alanine-scanning library clone) (hepatitis C virus genotype 1a, strain H77); assay: flow cytometry on cells

B1: monoclonal antibody AR3C (antibody, V domains shown)
VH: VQLLEQSGAEVKKPGSSVKVSCETSGGTFDNYALNWVRQAPGQGLEWIGGVVPLFGTTRNAQKFQGRVTISDDKSTGTGHMELRSLRSEDTAVYYCVRSVTPRYCGGGFCYGEFDYWGQGTLVTVSS
VL: EIELTQSPATLSVSPGERATLSCRASQSVSSNLAWYQQKPGQAPRLLIYGASTRATGIPARFSGSGSGTEFTLTVSRLEPEDSAVYFCQQYYRSPLTFGGGTKVEIK
- % reactivity (of wild type) [1]: 55%
- % reactivity (of wild type) [2]: 15%
